# Laboratory results reported in US20200116725.
# B1: MMP7 (Active, Human, Recombinant, E. coli, 444270, Merck Millipore) (protein)
# chain: YSLFPNSPKWTSKVVTYRIVSYTRDLPHITVDRLVSKALNMWGKEIPLHFRKVVWGTADIMIGFARGAHGDSYPFDGPGNTLAHAFAPGTGLGGDAHFDEDERWTDGSSLGINFLYAATHELGHSLGMGHSSDPNAVMYPTYGNGDPQNFKLSQDDIKGIQKLYGKRSNSRKK
# Target: T1, P220 MMP9-cleavable peptide, Biotin-GGGGGGGGGGPLGVRGKGGC
# T1 chain: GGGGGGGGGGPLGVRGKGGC
protein,measurement,value
B1,"% Cleavage (free AuNC fraction: 7-12 mL), gel filtration chromatography with catalytic activity readout; AuNC-P220-NAv + MMP7/9/13 (12 h)",MMP7: 12.1%
